Experiment [1] concerns the target T1, human PD-1 extracellular domain protein expressed in Example 1 (tag not stated) (human, UniProt Q15116 25-170).
T1 construct: extracellular domain; also called PD-1 protein; not shown: human IgG1 Fc or his tag
Briefly: ELISA; 15 mg/mL, His buffer pH 5.5, 37°C 0 day (-80°C).

The target of experiment [2] is T2, human TIM-3 extracellular domain-human IgG1 Fc fusion protein (human, UniProt Q8TDQ0 22-199).
T2 construct: Made in house or bought (ACROBiosystems TM3-H5258); also called TIM-3-hFc; not shown: human IgG1 Fc
Described as above.

Experiment [3] has as its target T1, human PD-1 extracellular domain protein …. Briefly: ELISA, EC50 of bispecific over EC50 of the monoclonal control. The method, then:
After washing the microplate 5 times with PBST, 50 μl/well TMB chromogenic substrate (KPL, 52-00-03) was added to the microplate, followed by incubating at room temperature for 10-15 min.
PD-1 expressed in Example 1 was diluted to a concentration of 1 μg/ml with PBS buffer, pH 7.4, and added to a 96-well microplate (Corning, CLS3590-100EA) at 50 μl per well, thereby incubating in an incubator at 37° C. for 2 hours. After discarding the liquid, a blocking solution of 5% skimmed milk (Shanghai Shenggong Biological Engineering Co., Ltd., A600669-0250) diluted with PBS was added at 200 μl per well, followed by incubating at 37° C. for 3 hours or 4° C. overnight (16-18 hours)) for blocking. Subsequently, the blocking solution was discarded, and the microplate was washed 5 times with PBST buffer (pH 7.4 PBS containing 0.05% tween-20). […] Subsequently, the microplate was washed 5 times with PBST, then 50 μl/well of 1:2500 diluted HRP-labeled secondary antibody (Jackson Immuno Research, 115-035-003) was added, thereby incubating at 37° C. for 1 hour. After washing the microplate 5 times with PBST, 50 μl/well TMB chromogenic substrate (KPL, 52-00-03) was added, then incubated at room temperature for 5-10 min. Finally, 50 μl/well of 1M H₂SO₄ was added to stop the reaction. […] Go microplate reader (ThermoFisher, 51119200) was used to read the absorption value at 450 nm and the EC50 based on the OD value was calculated.
(In an ELISA, binding on a coated surface is turned into a signal by an enzyme label.)

Experiment [4] has the same target. As to the kind of experiment: ELISA; PBS, 0 day, against 0 day.
The target of experiment [5] is T2, human TIM-3 extracellular domain-human …. As to the kind of experiment: ELISA; PBS, 0 day, against 0 day.
Experiment [6] deals with T1, human PD-1 extracellular domain protein …. As to the kind of experiment: ELISA; pH 5.5, 37°C 7 days, against 0 day.
The target of experiment [7] is T2, human TIM-3 extracellular domain-human …. As to the kind of experiment: ELISA; pH 5.5, 37°C 7 days, against 0 day.
Experiment [8] has the same target. As to the kind of experiment: ELISA; preparation buffer, 37°C 7 days.
Experiment [9] concerns the target T1, human PD-1 extracellular domain protein …. As to the kind of experiment: ELISA; preparation buffer, 37°C 14 days (degraded sample).
Experiment [10] deals with T2, human TIM-3 extracellular domain-human …. The experiment is described as above.
In experiment [11] the target is T1, human PD-1 extracellular domain protein …. As to the kind of experiment: blocking ELISA, PD-1 coated, competitor biotin-labeled PD-L1.
For experiment [12], the target named is T2, human TIM-3 extracellular domain-human …. As to the kind of experiment: ELISA. As for the experimental part:
Goat-anti-hFc (Jackson, 109-005-008) was diluted to a concentration of 1 μg/ml with PBS buffer (pH 7.4) and added to a 96-well microplate (Corning, CLS3590-100EA) at a volume of 50 μl/well, then incubated in an incubator at 37° C. for 2 hours (Or the antigen TIM-3 was directly used to coat the microplate with a concentration of 0.5 μg/ml, and then the antibody to be tested was directly added). After discarding the liquid, a blocking solution of 5% skimmed milk (skimmed milk powder purchased from Bright) diluted with PBS was added at 200 μl per well, and the microplate was incubated for 2.5 hours at 37° C. or overnight (16-18 hours) at 4° C. for blocking. The blocking solution was discarded, and the microplate was washed 5 times with PBST buffer (PBS with pH 7.4 containing 0.05% tween-20), then 50 μl/well of 0.5 μg/ml TIM-3-hFc (Example 1) was added and incubated for 2 hours in a 37° C. incubator. After incubation, the microplate was washed 6 times with PB ST. 50 μl/well of supernatant (containing testing antibody) or different concentrations of the antibody to be tested was added, and the microplate was incubated at 37° C. for 2 hours and washed 5 times with PBST. 50 μl/well of 1:2500 diluted HRP-labeled secondary antibody (Jackson Immuno Research, 115-035-003) was added to the microplate, incubating at 37° C. for 1 hour. After washing the microplate 5 times with PBST, 50 μl/well TMB chromogenic substrate (KPL, 52-00-03) was added to the microplate, followed by incubating at room temperature for 10-15 min.

Experiment [13] addresses T1, human PD-1 extracellular domain protein …. Briefly: ELISA; preparation buffer, 0 day, against 0 day.
Experiment [14] deals with T2, human TIM-3 extracellular domain-human …. As to the kind of experiment: ELISA; preparation buffer, 0 day, against 0 day.
Experiment [15] concerns the target T1, human PD-1 extracellular domain protein …. Briefly: ELISA; pH 5.5, 37°C 7 days.
For experiment [16], the target named is T2, human TIM-3 extracellular domain-human …. As to the kind of experiment: ELISA; pH 5.5, 37°C 7 days.

B1: bispecific antibody LB141 (bispecific antibody, human IgG4 S228P, kappa)
light: EIVLTQSPATLSLSPGERATLSCRASKGVSTSGYSYLHWYQQKPGQAPRLLIYLASYLESGVPARFSGSGSGTDFTLTISSLEPEDFAVYYCQHSRDLPLTFGGGTKVEIKRTVAAPSVFIFPPSDEQLKSGTASVVCLLNNFYPREAKVQWKVDNALQSGNSQESVTEQDSKDSTYSLSSTLTLSKADYEKHKVYACEVTHQGLSSPVTKSFNRGEC
heavy: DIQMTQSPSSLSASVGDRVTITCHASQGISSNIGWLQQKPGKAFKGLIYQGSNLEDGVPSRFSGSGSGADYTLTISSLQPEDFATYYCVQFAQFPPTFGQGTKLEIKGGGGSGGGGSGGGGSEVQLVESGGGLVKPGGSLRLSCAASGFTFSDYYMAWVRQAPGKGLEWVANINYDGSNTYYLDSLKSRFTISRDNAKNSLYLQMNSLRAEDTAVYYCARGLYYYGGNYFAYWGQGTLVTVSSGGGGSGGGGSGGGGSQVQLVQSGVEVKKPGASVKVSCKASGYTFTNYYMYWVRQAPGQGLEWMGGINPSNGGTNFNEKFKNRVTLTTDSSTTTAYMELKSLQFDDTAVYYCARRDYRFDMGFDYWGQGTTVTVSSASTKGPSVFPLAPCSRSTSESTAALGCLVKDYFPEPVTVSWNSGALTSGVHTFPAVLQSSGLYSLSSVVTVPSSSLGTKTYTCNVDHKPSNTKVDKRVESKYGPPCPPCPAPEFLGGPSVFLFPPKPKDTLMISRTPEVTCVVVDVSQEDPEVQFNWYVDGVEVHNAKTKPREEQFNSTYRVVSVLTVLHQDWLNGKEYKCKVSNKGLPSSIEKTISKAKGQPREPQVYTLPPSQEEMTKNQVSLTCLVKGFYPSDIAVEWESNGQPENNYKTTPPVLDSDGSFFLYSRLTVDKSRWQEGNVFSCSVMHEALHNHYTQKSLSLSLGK
notes: ab6VL-(G4S)3-ab6VH-(G4S)3-PemVH-hIgG4 with PemVL-κ
For orientation: EC50 means the concentration at which the effect is half-maximal. A higher EC50 goes with lower potency in that assay. One may read the IC50 as the concentration at which inhibition is half-maximal. A lower IC50 goes with higher potency. In the case of B1, the EC50 was 0.144 nM in [1]; 0.148 nM in [2]; 0.325 nM in [8]; 0.446 nM in experiment [9]; 14.5 nM in [10]; 0.648 nM in experiment [12]. Also, the EC50 in experiment [15] is 0.128 nM; in experiment [16], 0.157 nM. For the same molecule, the “Multiple of EC50 variation” value in experiment [3] was found to be 1.32 ratio. The “Fold change of EC50” value stood at 1 ratio in [4]; 1 ratio in experiment [5]; 0.89 ratio in experiment [6]; 1.06 ratio in [7]; 1 ratio in [13]; 1 ratio in [14]. Besides, the 50% inhibitory concentration (IC50) in experiment [11] came to 1.66 nM.
